Columns and labels:
Experiment in all cases: holdup assay
Set-up in all cases: key: below the threshold = too weak to quantify, mostly under pKd 3.1 to 4
Details in all cases: plain residues with an end cap or a label only (N-terminal biotin on a linker: ado-ado)
MAST1, Q9Y2H9 = target: MAST1, Q9Y2H9
NHERF4_1, Q86UT5-2 = target: NHERF4_1, Q86UT5-2
Inadl_3, Q8NI35 = target: Inadl_3, Q8NI35
MPP7, Q5T2T1 = target: T1, MPP7, Q5T2T1
T1 sequence (Q5T2T1 134-230, limits assumed, looked up): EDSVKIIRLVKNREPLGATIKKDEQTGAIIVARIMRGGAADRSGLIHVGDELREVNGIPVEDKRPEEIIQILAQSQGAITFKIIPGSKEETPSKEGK

Inadl_4, Q8NI35 = target: Inadl_4, Q8NI35
LNX2_3, Q8N448 = target: T2, LNX2_3, Q8N448
T2 sequence (Q8N448 463-564, limits assumed, looked up): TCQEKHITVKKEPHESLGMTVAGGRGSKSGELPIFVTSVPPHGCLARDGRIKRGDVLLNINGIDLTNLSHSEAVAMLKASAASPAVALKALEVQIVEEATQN

PCLO, Q9Y6V0 = target: T3, PCLO, Q9Y6V0
T3 sequence (Q9Y6V0 4491-4600, limits assumed, looked up): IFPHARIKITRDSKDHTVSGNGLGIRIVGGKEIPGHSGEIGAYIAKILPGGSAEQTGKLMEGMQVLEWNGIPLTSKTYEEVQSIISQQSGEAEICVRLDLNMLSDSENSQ

SCRIB_2, Q14160 = target: SCRIB_2, Q14160
TJP1_2, Q07157 = target: TJP1_2, Q07157
AHNAK1, Q09666 = target: AHNAK1, Q09666
ARHGEF12, Q9NZN5-2 = target: ARHGEF12, Q9NZN5-2
SNTA1, Q13424 = target: T4, SNTA1, Q13424
T4 sequence (Q13424 82-180, limits assumed, looked up): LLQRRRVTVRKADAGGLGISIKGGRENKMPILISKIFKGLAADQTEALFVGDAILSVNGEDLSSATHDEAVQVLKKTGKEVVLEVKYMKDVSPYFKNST

Inadl_9, Q8NI35 = target: Inadl_9, Q8NI35
NHERF2_2, Q15599 = target: NHERF2_2, Q15599
IL16_1, Q14005 = target: IL16_1, Q14005
HTRA3, P83110 = target: T5, HTRA3, P83110
T5 sequence (P83110 354-453, limits assumed, looked up): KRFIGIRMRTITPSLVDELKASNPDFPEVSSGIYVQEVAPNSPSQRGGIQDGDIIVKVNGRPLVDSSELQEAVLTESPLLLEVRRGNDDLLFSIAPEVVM

NOS1, P29475 = target: NOS1, P29475
DLG2_3, Q15700 = target: DLG2_3, Q15700
PARD3_3, Q8TEW0 = target: PARD3_3, Q8TEW0
HTRA4, P83105 = target: T6, HTRA4, P83105
T6 sequence (P83105 378-476, limits assumed, looked up): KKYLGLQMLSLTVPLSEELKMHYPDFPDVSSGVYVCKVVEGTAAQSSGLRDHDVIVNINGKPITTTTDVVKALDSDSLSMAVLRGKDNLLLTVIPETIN

SNTG1, Q9NSN8 = target: T7, SNTG1, Q9NSN8
T7 sequence (Q9NSN8 52-150, limits assumed, looked up): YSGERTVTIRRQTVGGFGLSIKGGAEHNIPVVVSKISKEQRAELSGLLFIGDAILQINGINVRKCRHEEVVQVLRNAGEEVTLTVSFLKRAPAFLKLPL

CARD11, Q9BXL7 = target: T8, CARD11, Q9BXL7
T8 sequence (Q9BXL7 662-765, limits assumed, looked up): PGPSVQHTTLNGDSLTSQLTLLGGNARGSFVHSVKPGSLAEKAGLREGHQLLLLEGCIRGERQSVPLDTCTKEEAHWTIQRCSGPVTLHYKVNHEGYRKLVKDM

PARD3B_1, Q8TEW8 = target: T9, PARD3B_1, Q8TEW8
T9 sequence (Q8TEW8 196-299, limits assumed, looked up): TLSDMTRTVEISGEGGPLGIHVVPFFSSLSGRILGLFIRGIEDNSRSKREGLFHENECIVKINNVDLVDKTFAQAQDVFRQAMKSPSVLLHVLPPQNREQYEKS

SNTG2, Q9NY99 = target: T10, SNTG2, Q9NY99
T10 sequence (Q9NY99 68-166, limits assumed, looked up): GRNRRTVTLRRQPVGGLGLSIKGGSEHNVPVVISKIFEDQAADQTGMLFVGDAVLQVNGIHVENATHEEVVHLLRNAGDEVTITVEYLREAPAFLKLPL

MAGI2_5, Q86UL8 = target: MAGI2_5, Q86UL8
SYNJ2BP, P57105 = target: T11, SYNJ2BP, P57105
T11 sequence (P57105 8-110, limits assumed, looked up): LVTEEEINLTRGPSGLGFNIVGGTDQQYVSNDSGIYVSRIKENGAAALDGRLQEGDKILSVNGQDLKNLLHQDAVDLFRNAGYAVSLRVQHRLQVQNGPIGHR

Chain of IL16_1, Q14005 (Q14005 210-306): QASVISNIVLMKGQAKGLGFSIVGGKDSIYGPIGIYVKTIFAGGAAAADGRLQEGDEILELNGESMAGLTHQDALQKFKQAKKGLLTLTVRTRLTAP
Chain of NHERF4_1, Q86UT5-2 (Q86UT5 other isoform, or with tags, fused parts or gaps): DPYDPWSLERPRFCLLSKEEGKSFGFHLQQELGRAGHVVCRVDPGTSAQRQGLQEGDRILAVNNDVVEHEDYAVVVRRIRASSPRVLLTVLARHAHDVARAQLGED
Chain of NOS1, P29475 (P29475 9-101): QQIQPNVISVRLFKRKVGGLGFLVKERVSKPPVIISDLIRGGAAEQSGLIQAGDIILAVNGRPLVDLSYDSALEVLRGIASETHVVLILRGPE
Chain of MAGI2_5, Q86UL8 (Q86UL8 915-1017): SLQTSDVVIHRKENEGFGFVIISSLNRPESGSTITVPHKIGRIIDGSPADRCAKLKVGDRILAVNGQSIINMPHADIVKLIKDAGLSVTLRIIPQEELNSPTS
Chain of ARHGEF12, Q9NZN5-2 (Q9NZN5 other isoform, or with tags, fused parts or gaps): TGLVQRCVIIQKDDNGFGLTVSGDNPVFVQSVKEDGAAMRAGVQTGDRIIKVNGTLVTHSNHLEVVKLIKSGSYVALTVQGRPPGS
Chain of MAST1, Q9Y2H9 (Q9Y2H9 962-1065): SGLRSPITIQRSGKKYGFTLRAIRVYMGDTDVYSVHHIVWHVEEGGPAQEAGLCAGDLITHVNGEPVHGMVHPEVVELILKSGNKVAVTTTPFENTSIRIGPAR
Chain of NHERF2_2, Q15599 (Q15599 142-238): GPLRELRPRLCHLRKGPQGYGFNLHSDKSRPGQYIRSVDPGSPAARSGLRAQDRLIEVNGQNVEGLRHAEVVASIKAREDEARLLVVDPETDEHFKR
Chain of AHNAK1, Q09666 (Q09666 4-100): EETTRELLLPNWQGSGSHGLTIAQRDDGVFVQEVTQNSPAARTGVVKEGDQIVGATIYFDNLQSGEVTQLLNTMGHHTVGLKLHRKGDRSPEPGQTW
Chain of Inadl_3, Q8NI35 (Q8NI35 359-469): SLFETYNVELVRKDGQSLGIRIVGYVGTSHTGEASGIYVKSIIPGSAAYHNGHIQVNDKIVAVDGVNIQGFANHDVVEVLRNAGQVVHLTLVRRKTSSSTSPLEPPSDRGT
Chain of PARD3_3, Q8TEW0 (Q8TEW0 582-685): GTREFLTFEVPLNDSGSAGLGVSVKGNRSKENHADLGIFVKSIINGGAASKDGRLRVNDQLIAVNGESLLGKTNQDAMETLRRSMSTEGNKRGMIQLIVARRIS
Chain of Inadl_4, Q8NI35 (Q8NI35 547-651): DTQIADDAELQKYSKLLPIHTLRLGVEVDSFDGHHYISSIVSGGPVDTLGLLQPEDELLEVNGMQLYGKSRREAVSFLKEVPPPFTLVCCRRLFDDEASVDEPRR
Chain of Inadl_9, Q8NI35 (Q8NI35 1530-1615): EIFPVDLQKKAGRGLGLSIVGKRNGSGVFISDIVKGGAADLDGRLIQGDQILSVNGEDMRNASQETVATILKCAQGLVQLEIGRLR
Chain of SCRIB_2, Q14160 (Q14160 857-960): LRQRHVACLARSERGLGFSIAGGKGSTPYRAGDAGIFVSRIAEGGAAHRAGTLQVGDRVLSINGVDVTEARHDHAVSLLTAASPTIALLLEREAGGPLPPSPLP
Chain of TJP1_2, Q07157 (Q07157 181-274): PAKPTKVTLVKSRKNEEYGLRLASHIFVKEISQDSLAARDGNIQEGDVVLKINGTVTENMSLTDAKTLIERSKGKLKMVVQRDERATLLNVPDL

| Binder | pKd (MAST1, Q9Y2H9) | pKd (NHERF4_1, Q86UT5-2) | pKd (Inadl_3, Q8NI35) | pKd (MPP7, Q5T2T1) | pKd (Inadl_4, Q8NI35) | pKd (LNX2_3, Q8N448) | pKd (PCLO, Q9Y6V0) | pKd (SCRIB_2, Q14160) | pKd (TJP1_2, Q07157) | pKd (AHNAK1, Q09666) | pKd (ARHGEF12, Q9NZN5-2) | pKd (SNTA1, Q13424) | pKd (Inadl_9, Q8NI35) | pKd (NHERF2_2, Q15599) | pKd (IL16_1, Q14005) | pKd (HTRA3, P83110) | pKd (NOS1, P29475) | pKd (DLG2_3, Q15700) | pKd (PARD3_3, Q8TEW0) | pKd (HTRA4, P83105) | further results |
| --- | --- | --- | --- | --- | --- | --- | --- | --- | --- | --- | --- | --- | --- | --- | --- | --- | --- | --- | --- | --- | --- |
| NISARRFTLC [FAM167B, Q9BTA0] | below the threshold | 4.27 | below the threshold | below the threshold | below the threshold | below the threshold | below the threshold | below the threshold | below the threshold | below the threshold | 4.13 | below the threshold | below the threshold | below the threshold | below the threshold | 4.54 | 3.81 | 4.43 | below the threshold | 4.55 | pKd (SNTG1, Q9NSN8): 3.48; pKd (CARD11, Q9BXL7): below the threshold; pKd (PARD3B_1, Q8TEW8): below the threshold; pKd (SNTG2, Q9NY99): below the threshold; pKd (MAGI2_5, Q86UL8): 4.26; pKd (SYNJ2BP, P57105): 3.75 |
| RSPVATATSC [DUSP5, Q16690] | 3.81 | 3.59 | below the threshold | below the threshold | below the threshold | below the threshold | below the threshold | below the threshold | below the threshold | below the threshold | 4.26 | below the threshold | below the threshold | below the threshold | below the threshold | 3.89 | below the threshold | 3.7 | below the threshold | below the threshold | pKd (SNTG1, Q9NSN8): below the threshold; pKd (CARD11, Q9BXL7): below the threshold; pKd (PARD3B_1, Q8TEW8): below the threshold; pKd (SNTG2, Q9NY99): below the threshold; pKd (MAGI2_5, Q86UL8): below the threshold; pKd (SYNJ2BP, P57105): below the threshold |
| STYCDYTIEI [FAM71C, Q8NEG0] | 4.47 | below the threshold | 5 | 4.6 | below the threshold | below the threshold | below the threshold | below the threshold | 3.65 | below the threshold | 3.76 | below the threshold | 4.19 | below the threshold | below the threshold | 4.08 | 3.62 | below the threshold | 5.15 | 4.96 | pKd (SNTG1, Q9NSN8): below the threshold; pKd (CARD11, Q9BXL7): below the threshold; pKd (PARD3B_1, Q8TEW8): 4.1; pKd (SNTG2, Q9NY99): below the threshold; pKd (MAGI2_5, Q86UL8): below the threshold; pKd (SYNJ2BP, P57105): below the threshold |
| PLPPEEESWV [GAS2L2, Q8NHY3] | below the threshold | below the threshold | 3.78 | 3.57 | below the threshold | below the threshold | below the threshold | 4.94 | below the threshold | below the threshold | below the threshold | 4.6 | 4.34 | 4.62 | 5.24 | 5.59 | 4.06 | 3.86 | 4.75 | 3.59 | pKd (SNTG1, Q9NSN8): 5.6; pKd (CARD11, Q9BXL7): below the threshold; pKd (PARD3B_1, Q8TEW8): 3.95; pKd (SNTG2, Q9NY99): 4.24; pKd (MAGI2_5, Q86UL8): 4.92; pKd (SYNJ2BP, P57105): 4.98 |

Source: publication PMC9482650, “Quantitative fragmentomics allow affinity mapping of interactomes” (Nature Communications, 2022)
